T1: Ccl1 (yeast, UniProt P37366 1-393)
T1 sequence: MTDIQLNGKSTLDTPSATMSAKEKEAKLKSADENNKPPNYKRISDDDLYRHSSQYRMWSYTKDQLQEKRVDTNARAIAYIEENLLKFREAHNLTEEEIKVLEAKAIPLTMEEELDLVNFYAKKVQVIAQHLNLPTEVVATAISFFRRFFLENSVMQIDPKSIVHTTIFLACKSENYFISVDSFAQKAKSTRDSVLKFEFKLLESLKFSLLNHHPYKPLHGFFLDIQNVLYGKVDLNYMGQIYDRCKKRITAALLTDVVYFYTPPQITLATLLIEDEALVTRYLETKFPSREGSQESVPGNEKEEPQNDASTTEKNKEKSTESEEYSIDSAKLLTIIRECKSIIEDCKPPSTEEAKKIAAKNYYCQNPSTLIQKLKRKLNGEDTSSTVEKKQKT

B1: Kin28 (enzyme)
chain: MKVNMEYTKEKKVGEGTYAVVYLGCQHSTGRKIAIKEIKTSEFKDGLDMSAIREVKYLQEMQHPNVIELIDIFMAYDNLNLVLEFLPTDLEVVIKDKSILFTPADIKAWMLMTLRGVYHCHRNFILHRDLKPNNLLFSPDGQIKVADFGLARAIPAPHEILTSNVVTRWYRAPELLFGAKHYTSAIDIWSVGVIFAELMLRIPYLPGQNDVDQMEVTFRALGTPTDRDWPEVSSFMTYNKLQIYPPPSRDELRKRFIAASEYALDFMCGMLTMNPQKRWTAVQCLESDYFKELPPPSDPSSIKIRN
modifications: phosphothreonine at 162 (pT162)
B2: Tfb3 (natural protein)
chain: MLMDEYEENKDMCPICKTDRYLSPDVKFLVNPECYHRICESCVDRIFSLGPAQCPYKGCDKILRKNKFKTQIFDDVEVEKEVDIRKRVFNVFNKTIDDFNGDLVEYNKYLEEVEDIIYKLDHGIDVAKTEEKLRTYEELNKQLIMNNLERSRTEIESFEQRQKFEKEMKLKKRLLERQIEEEERMNKEWTKKEIVNRLSTTTQDINETIEGVKNTVKLKKSSARRKLEELNRVLKNNPYFNSNVNVQNSRLKDAVPFTPFNGDREAHPRFTLKGSVYNDPFIKDLEHRKEFIASGFNTNYAYERVLTEAFMGLGCVISEEL

What was measured:
Ccl1 = biological target: T1, Ccl1; test: cryo-EM structure
Tfb3 = biological target: B2; test: cryo-EM structure

Row | Binder | binding result (Ccl1) | binding result (Tfb3)
1 | B1 | binds | binds
2 | B2 | binds | –

From PMC8026125 (Science Advances, 2021)
